From patent US20260139067A1 (BETH ISRAEL DEACONESS MEDICAL CENTER, published 2026)
Residue numbers refer to the chain shown, from its start.

What was measured:
[1] = biological target: T1, CDCP1 expressed on the surface of human cells (PC3, H1299, H2009 and others) (human, UniProt Q9H5V8 30-836); experiment: immunoprecipitation: antibody 76 (20 ng/ml) added to intact PC3 cells (80 min, 4 °C), Western blot
T1 construct: Endogenous CDCP1 of human cell lines; also called CDCP1 antigen expressed on PC3 cells; CDCP1 expressing cells

[2] = biological target: T1, CDCP1 expressed on the surface of human …; experiment: flow cytometry on H1299 cells (NSCLC), anti-human IgG Fc R-PE detection
Protocol: (§1) Binding was evaluated on three human cancer cell lines, PC3 (prostate cancer), H1299 (Non-small cell lung cancer), and H2009 (lung adenocarcinoma). To accomplish this, adherent cells were first dissociated with Cell Dissociation Buffer (Life Technologies #13150-016), pelleted by centrifugation, and resuspended by FACS buffer (PBS-CMF, 3% FBS, 0.1% weight/volume (w/v) sodium azide). […] Following a thirty-minute incubation on ice in dark, the cells were washed twice, combined with eFluor 660 Fixable Viability Dye (eBioscience #65-0864-18), and fixed (BD Cytofix, BD Biosciences #554655). Stained cells were acquired on a LSR Fortessa instrument using BD FACSDiva Software. Background subtracted gMFI of viable cells was determined using FlowJo software and plotted using Graphpad Prism software to generate EC₅₀ s (FIGS. 26A and 26B).

[3] = biological target: T1, CDCP1 expressed on the surface of human …; experiment: flow cytometry on PC3 cells (prostate cancer), anti-human IgG Fc R-PE detection
Protocol: as §1

[4] = biological target: T2, recombinant human CDCP1 extracellular domain (CDCP1-ECD) (human, UniProt Q9H5V8 30-663); experiment: SPR (Biacore T200), antibody captured on anti-human IgG, CDCP1-ECD injected
T2 construct: Expressed in HEK293 and chemically biotinylated for the phage selection; also called human CDCP1 ECD; human CDCP1-ECD
Protocol: (§2) Specifically, the binding kinetics of anti-CDCP1 antibodies against recombinant human, cynomologus monkey and mouse CDCP1-ECD were determined using surface plasmon resonance (SPR) and a Biacore T200 instrument (GE Healthcare). An anti-human IgG antibody was amine coupled onto a CM5 carboxymethylated dextran sensor chip surface (GE Healthcare), using the manufacturer's recommendations, to densities of approximately 10,000-13,000 response units (RU). Each anti-CDCP1 antibody was diluted to 0.5 μg/mL in 10 mM HEPES pH 7.4, 0.15 M NaCl, 3 mM EDTA, 0.05% P-20 (HBS-EP+) and captured for about 20-23 seconds at a flow rate of 10 μL/min. […] The sensorchip surface was regenerated with three 30 second pulses of 3M MgCl₂ at a flow rate of 50 μL/minute. All injections used HBS-EP+ as both the running and sample buffer and were performed at 25° C. with a data collection rate of 1 Hz. Sensorgrams were double referenced by using both a control surface and buffer injections. Rate constants were determined by fitting the data to a 1:1 model with Biacore T200 evaluation software v3.0 and the equation KD=kd/kₐ.

[5] = biological target: T3, recombinant cynomolgus monkey CDCP1 extracellular domain (cynomolgus monkey, UniProt A0A2K5VLA8 30-663); experiment: as above
T3 construct: range 30-663; also called cyno CDCP1 ECD; cynomolgus monkey CDCP1-ECD
T3 sequence (A0A2K5VLA8 entry or part of it): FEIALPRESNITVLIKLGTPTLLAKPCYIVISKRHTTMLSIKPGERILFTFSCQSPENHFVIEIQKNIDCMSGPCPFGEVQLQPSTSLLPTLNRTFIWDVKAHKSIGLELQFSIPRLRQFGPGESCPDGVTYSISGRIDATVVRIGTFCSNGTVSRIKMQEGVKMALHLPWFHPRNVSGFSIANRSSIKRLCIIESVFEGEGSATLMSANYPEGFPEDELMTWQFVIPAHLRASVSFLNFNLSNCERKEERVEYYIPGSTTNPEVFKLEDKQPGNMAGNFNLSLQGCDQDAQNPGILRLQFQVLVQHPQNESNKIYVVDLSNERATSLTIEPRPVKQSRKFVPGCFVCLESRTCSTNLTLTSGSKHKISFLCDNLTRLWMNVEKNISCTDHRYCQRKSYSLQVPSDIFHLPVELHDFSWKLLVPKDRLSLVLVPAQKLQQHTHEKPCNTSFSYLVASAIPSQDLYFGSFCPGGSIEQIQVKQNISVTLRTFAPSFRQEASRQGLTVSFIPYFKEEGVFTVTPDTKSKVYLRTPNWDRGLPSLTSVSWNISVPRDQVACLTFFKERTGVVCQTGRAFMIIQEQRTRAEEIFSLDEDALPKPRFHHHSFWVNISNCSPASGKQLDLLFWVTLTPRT
Protocol: as §2

[6] = biological target: T1, CDCP1 expressed on the surface of human …; experiment: flow cytometry on H2009 cells (lung adenocarcinoma), anti-human IgG Fc R-PE detection
Protocol: as §1

[7] = biological target: T2, recombinant human CDCP1 extracellular …; experiment: SPR (Biacore T200), antibody captured on anti-human IgG, CDCP1-ECD injected; experiment 2
Protocol: as §2

[8] = biological target: T3, recombinant cynomolgus monkey CDCP1 …; experiment: as above
Protocol: as §2

[9] = biological target: T1, CDCP1 expressed on the surface of human …; experiment: competition FACS on PC3 cells; competitor: biotinylated CP13E10 reporter at 1.5 µg/mL, streptavidin-PE detection
Protocol: For this competition FACS assay procedure, PC3 cells were detached from flasks using cell dissociation buffer (Gibco, catalog number 13151-014), washed once with ice-cold FACS buffer (PBS-CMF pH 7.2+3% FBS+0.1% sodium azide) and 2.5×10⁵ cells in 50 μl buffer were added to each well in 96-well V-bottom plates (Corning catalog number 3894). […] Next, the cells were washed twice with FACS buffer. Streptavidin-PE (Invitrogen/eBioscience catalog number 12-4317-87) diluted 1:200 was added and incubated for 30 minutes at room temperature. The cells were washed twice with FACS buffer and were fixed on ice for 15 minutes by adding 100 μl of BD Cytofix (BD Biosciences catalog number 554655) to each well. The cells were washed twice with FACS buffer.

[10] = biological target: T1, CDCP1 expressed on the surface of human …; experiment: competition FACS on PC3 cells; competitor (reporter) biotinylated CP13E10
[11] = biological target: T2, recombinant human CDCP1 extracellular …; experiment: competition ELISA of Example 7 on CDCP1-ECD (biotinylated CP13E10-54HC-89LC reporter as described there; the reporter is not named on the sheet)
Protocol: The CDCP1-ECD protein was diluted to 1 μg/ml in PBS-CMF pH 7.2, 100 μl was added to each well of the plate, and the plate was incubated overnight at 4° C. The contents of the plate were discarded and then the plate was blocked with PBS-CMF pH7.2+0.02% casein for 3 hours at room temperature. […] The wells were washed four times with PBS-CMF pH7.2+0.03% tween-20. Streptavidin-HRP (catalog #7100-05, Southern Biotech, (Birmingham, Alabama) diluted 1:10,000 was added and incubated for 30 minutes at room temperature. The wells were washed four times with PBS-CMF pH 7.2+0.03% tween-20 and then TMB (BioFx) was added. The reaction developed for 5 to 10 minutes and was then quenched with 0.18 N H₂SO₄. The absorbance at 450 nm was determined and the results are shown in FIG. 7.

[12] = biological target: T2, recombinant human CDCP1 extracellular …; experiment: SPR, Biacore T200
Protocol: as §2

[13] = biological target: T3, recombinant cynomolgus monkey CDCP1 …; experiment: SPR, Biacore T200
Protocol: as §2

[14] = biological target: T1, CDCP1 expressed on the surface of human …; experiment: immunoprecipitation: antibody 24 (5 µg/ml) added to intact PC3 cells (80 min, 4 °C), Western blot

B1: antibody 76 (antibody, human IgG1, lambda, V domains shown)
VH: QVQLVQSGAEVKKPGSSVKVSCKASGGTFSSYAISWVRQAPGQGLEWMGGIIPIFGTANYAQKFQGRVTITADKSTSTAYMELSSLRSEDTAVYYCARDPTYFDWTRRGYYYMDVWGKGTTVTVSS
VL: SYELTQPPSVSVSPGQTARITCSGDALPKKYAFWYQQKSGQAPVLVIYEDSKRPSGIPEKFSGSSSGTMATLTISGAQVEDEADYYCYSTDSSDNPRGVFGGGTKLTVLG
notes: Human IgG1, lambda
B1: binds [1].

B2: CP13E10-54HC-89LC (antibody, human IgG1, kappa, V domains shown)
VH: EVQLVQSGAEVKKPGASVKVSCKASGYTFTSYYMHWVRQAPGQGLEWMGIINPSGGSTSYAQKFQGRVTMTRDTSTSTVYMELSSLRSEDTAVYYCARDGELRHFDHLLDYHYYMDVWGQGTTVTVSS
VL: EIVLTQSPATLSLSPGERATLSCRASQSVGSYLAWYQQRPGQAPRLLIYDASNRATGIPARFSGSGSGTDFTLTISSLEPEDFAVYYCQQRAQEFTFGQGTKVEIKR
notes: Human IgG1, kappa; Alexa Fluor 647 conjugated in the internalization assay; also called CP13E10-54VH-89VL
In the case of B2, the EC50 [2] is reported as 0.73 nM, the EC50 [3] is reported as 1.69 nM and the Kd [4] is reported as 52.9 nM. For the same binder, the Kd [5] was 79.9 nM, the EC50 [6] was 0.77 nM and the Kd [7] was 42 nM. The Kd [8] was 63.4 nM.

B3: CP13E10-54 variant (antibody, human IgG1, kappa, V domains shown)
VH: B2 VH
VL: B2 VL with Q93N, E94V
B3 was tested, and the “IC50 (read off the curve)” value [9] was about 9 nM.

B4: CP13E10-34 variant (antibody, V domains shown)
VH: B2 VH with E101V, Q120K
VL: B2 VL with Q93N, E94V
B4 was tested, and the “fold lower binding relative to parental CP13E10” value [10] was over 7 fold and the Kd [4] was 607 nM.

B5: CP13E10-54HCv13-89LCv1 (antibody, human IgG1, kappa, V domains shown)
VH: B2 VH with G100A
VL: B2 VL with L4M, R39K, E79Q
In the case of B5, the “IC50 (read off the curve)” value [11] is reported as about 5 nM.

B6: CP13E10 (antibody, human IgG1, kappa, V domains shown)
VH: B2 VH with E101V, H104Y, H107W, H112Y, Q120K
VL: B2 VL with Q93N, E94V
notes: Human IgG1, kappa; Heavy chain can be prepared with or without the C-terminal lysine; also called CP13E10-WT; parental CP13E10 antibody
B6 was tested, and the Kd [4] was 219 nM, the Kd [5] was 232 nM and the “IC50 (read off the curve)” value [9] was about 7 nM.

B7: CP13E10-291 (antibody, human IgG1, kappa, V domains shown)
VH: B2 VH with H107Q, L108V, L109Y, D110N
VL: B2 VL with Q93N, E94V
notes: Human IgG1, kappa
In the case of B7, the “fold increase in affinity relative to CP13E10-34” value [12] is reported as over 200 fold, the “fold increase in binding relative to CP13E10-WT” value [13] is reported as over 70 fold and the Kd [4] is reported as 2.9 nM. The Kd [5] was 3.12 nM.

B8: antibody 24 (antibody, human IgG1, kappa, V domains shown)
VH: QVQLVESGGGVVQPGRSLRLSCAASGFTFSSYGMHWVRQAPGKGLEWVAVISYDGSNKYYADSVKGRFTISRDNSKNTLYLQMNSLRAEDTAVYYCARGVGLPDIWGQGTMVTVSS
VL: EIVMTQSPDTLSLSPGERATLSCRASQKIYYSYLAWYQQKPGQAPRLLISGASTRASDISDRFSGGGSGTDFTLTINSLESEDAAVYYCQQYDSLPVTFGRGTKLEIKR
notes: Human IgG1, kappa
B8: binds [14].
